Experiment [1] addresses T1, human insulin receptor extracellular domain (HIR ECD) (human, UniProt P06213 28-956, limits assumed).
T1 construct: extracellular domain; Plated on 96-well dishes in the ELISA
As to the kind of experiment: ELISA, recombinant HIR ECD plated; normalised with MW 150 kDa. Here is the method:
(§1) The potency of the CHO-derived fusion protein was assessed with the HIR ECD binding ELISA. The affinity of the fusion protein for the HIR extracellular domain (ECD) was determined with an ELISA. Recombinant HIR ECD was plated on Nunc-Maxisorb 96 well dishes and the binding of the HIR Ab, or the HIR Ab-PPT1 fusion protein, to the HIR ECD was detected with a secondary antibody, followed by binding with an alkaline phosphatase detector reagent. […] The MW of the HIR Ab is 150 kDa, and the MW of the HIR Ab-fusion protein is 246 kDa.

Experiment [2] has as its target T1, human insulin receptor extracellular …. Description: ELISA, HIR ECD plated (HIR receptor assay).
Experiment [3] has the same target. As to the kind of experiment: ELISA, HIR ECD plated; normalised with MW 150 kDa. On the procedure: (§2) The COS-derived HIR Ab-HEXA fusion protein (also designated HIRMAb-HEXA), following purification with protein A affinity chromatography, was assessed for purity by reducing sodium dodecysulfate polyacrylamide gel electrophoresis (SDS-PAGE) as shown in FIG. 10. Only the HC and LC proteins are detected for either the HIRMAb alone or the HIRMAb-HEXA fusion protein. For the HIRMAb alone the higher molecular weight (MW) band is the HC and the lower MW band is the LC. For the HIRMAb-HEXA fusion protein, the higher MW band is the […]. The identity of the fusion protein was verified by Western blotting using primary antibodies to either human IgG (FIG. 11, left panel) or human HEXA (FIG. 11, right panel). The molecular weight (MW) of the HIRMAb-HEXA heavy and light chains are estimated by linear regression based on the migration of the MW standards. […] The affinity of the fusion protein for the HIR extracellular domain (ECD) was determined with an ELISA. […] The HIR ECD was plated on Nunc-Maxisorb 96 well dishes and the binding of the HIR Ab, or the HIR Ab-HEXA fusion protein, to the HIR ECD was detected with a secondary antibody, followed by binding with an alkaline phosphatase detector reagent. […]
(In general: An ELISA detects its analyte on a solid surface through an enzyme-linked reagent.)

The target is the same in experiment [4]. As to the kind of experiment: ELISA, recombinant HIR ECD plated, secondary antibody and alkaline phosphatase detection. On the procedure: as §1
Experiment [5] shares this target. As to the kind of experiment: ELISA, recombinant HIR ECD plated, secondary antibody and alkaline phosphatase detection; CHO-derived HIR Ab. Here is the method: (§3) The affinity of the fusion protein for the HIR extracellular domain (ECD) was determined with an ELISA. Recombinant HIR ECD was plated on Nunc-Maxisorb 96 well dishes and the binding of the HIR Ab, or the HIR Ab-ASM fusion protein, to the HIR ECD was detected with a secondary antibody, followed by binding with an alkaline phosphatase detector reagent. […] The MW of the HIR Ab is 150 kDa, and the MW of the HIR Ab-fusion protein is 320 kDa.

The target is the same in experiment [6]. As to the kind of experiment: ELISA, HIR ECD plated, biotinylated goat anti-human IgG detection.
Experiment [7] has the same target. Description: ELISA, HIR ECD plated, secondary antibody and alkaline phosphatase detection. Here is the method:
as §2

Experiment [8] shares this target. Description: ELISA, recombinant HIR ECD plated, secondary antibody and alkaline phosphatase detection; CHO-derived protein. Here is the method: as §3, §1
Experiment [9] shares this target. As to the kind of experiment: ELISA, recombinant HIR ECD plated; CHO-derived protein; normalised with MW 246 kDa. Here is the method:
as §1

For experiment [10] the target is unchanged. Description: ELISA, recombinant HIR ECD plated; CHO-derived protein; normalised with MW 320 kDa. On the procedure: as §3
Experiment [11] has the same target. Description: ELISA, HIR ECD plated, secondary antibody and alkaline phosphatase detection; COS-derived protein. On the procedure:
as §2

Experiment [12] shares this target. Description: ELISA, HIR ECD plated; CHO-derived protein. Here is the method:
The estimated MW of the hetero-tetrameric HIRMAb-HEXA fusion protein shown in FIG. 2 is 318 kDa, based on migration in the SDS-PAGE of the Western blot. The affinity of the fusion protein for the HIR extracellular domain (ECD) was determined with an ELISA. CHO cells permanently transfected with the HIR ECD were grown in serum free media (SFM), and the HIR ECD was purified with a wheat germ agglutinin affinity column, as previously described in Coloma et al. (2000) Pharm Res, 17:266-274. The HIR ECD was plated on Nunc-Maxisorb 96 well dishes and the binding of the HIR Ab, or the HIR Ab-HEXA fusion protein, to the HIR ECD was detected with a secondary antibody, followed by binding with an alkaline phosphatase detector reagent. […] The MW of the HIR Ab is 150 kDa, and the MW of the HIR Ab-fusion protein is 318 kDa.
The CHO line producing the HIR Ab-HEXA fusion protein was generated from CHO cells following 2 rounds of DC as described above. The accession cell line was propagated in a 2L shake flask in SFM on an orbital shaker and the CHO-derived fusion protein was purified by protein A affinity chromatography. […] The potency of the CHO-derived fusion protein as assessed with the HIR ECD binding ELISA, as described above.

Experiment [13] shares this target. Description: ELISA, HIR ECD plated; COS-derived protein; normalised with MW 318 kDa. Here is the method:
as §2

This passage reports EC50 results from US20240252667A1 (ARMAGEN, published 2024).

“And” between values parts separate entries of the source, which are not always exact repeats. Equal entries are not always repeated.

B1: chimeric HIR Ab (antibody to the human insulin receptor) (antibody, human IgG1, kappa)
heavy: not shown
light: DIQMTQSPSSLSASLGERVSLTCRASQDIGGNLYWLQQGPDGTIKRLIYATSSLDSGVPKRFSGSRSGSDYSLTISSLESEDFVDYYCLQYSSSPWTFGGGTKMEIKRTVAAPSVFIFPPSDEQLKSGTASVVCLLNNFYPREAKVQWKVDNALQSGNSQESVTEQDSKDSTYSLSSTLTLSKADYEKHKVYACEVTHQGLSSPVTKSFNRGEC
notes: also called HIRMAb; chimeric HIRMAb
In the case of B1, the EC50 (commonly the midpoint of the concentration-response curve) in experiment [1] was 320 pM and 260 pM; in experiment [2], 250 pM; in experiment [3], 230 pM; in [4], 0.039 µg/mL; in experiment [5], 0.047 µg/mL; in [6] it was 770 pM. Moreover, the midpoint of the response in experiment [7], the EC50, lay at 0.034 µg/mL.

B2: HIR Ab-LL-PPT1 fusion protein (31-amino acid linker) (antibody, human IgG1, human IgG3, kappa)
heavy: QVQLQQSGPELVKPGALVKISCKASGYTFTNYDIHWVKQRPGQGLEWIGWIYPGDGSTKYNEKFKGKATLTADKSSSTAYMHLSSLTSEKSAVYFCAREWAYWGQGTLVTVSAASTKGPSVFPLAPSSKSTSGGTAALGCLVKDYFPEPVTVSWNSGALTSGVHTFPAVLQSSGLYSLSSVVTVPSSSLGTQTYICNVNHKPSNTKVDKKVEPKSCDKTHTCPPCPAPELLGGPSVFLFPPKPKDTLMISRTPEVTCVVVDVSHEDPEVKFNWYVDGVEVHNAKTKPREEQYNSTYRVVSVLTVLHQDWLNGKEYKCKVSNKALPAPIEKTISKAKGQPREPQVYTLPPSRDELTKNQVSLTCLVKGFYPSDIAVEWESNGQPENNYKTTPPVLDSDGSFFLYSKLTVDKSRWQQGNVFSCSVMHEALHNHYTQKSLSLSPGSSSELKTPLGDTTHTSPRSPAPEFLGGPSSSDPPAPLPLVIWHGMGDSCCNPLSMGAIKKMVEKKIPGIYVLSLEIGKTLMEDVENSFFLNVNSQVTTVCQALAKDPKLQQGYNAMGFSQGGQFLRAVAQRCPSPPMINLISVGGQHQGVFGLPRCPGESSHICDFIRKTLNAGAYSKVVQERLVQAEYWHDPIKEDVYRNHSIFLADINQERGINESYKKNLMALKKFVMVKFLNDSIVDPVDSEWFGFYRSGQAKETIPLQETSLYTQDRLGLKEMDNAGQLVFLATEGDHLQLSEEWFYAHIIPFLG
light: B1 light
notes: Hetero-tetramer, MW 246 kDa; The ELISA used CHO-derived protein; also called HIR Ab-PPT1; HIRMAb-PPT1
Turning to B2, the EC50 amounted to 0.094 µg/mL in [8] and 380 pM in experiment [9].

B3: HIR Ab-ASM fusion protein (antibody, human IgG1, human IgG3, kappa)
heavy: not shown
light: DIQMTQSPSSLSASLGERVSLTCRASQDIGGNLYWLQQGPDGTIKRLIYATSSLDSGVPKRFSGSRSGSDYSLTISSLESEDFVDYYCLQYSSSPWTFGGGTKMEIKRTVAAPSVFIFPPSDEQLKSGTASVVCLLNNFYPREAKVQWKVDNALQSGNSQESVTEQDSKDSTYSLSSTLTLSKADYEKHKVYACEVTHQGLSSPVTKSFNRGECSSSELKTPLGDTTHTSPRSPAPEFLGGPSSSHPLSPQGHPARLHRIVPRLRDVFGWGNLTCPICKGLFTAINLGLKKEPNVARVGSVAIKLCNLLKIAPPAVCQSIVHLFEDDMVEVWRRSVLSPSEACGLLLGSTCGHWDIFSSWNISLPTVPKPPPKPPSPPAPGAPVSRILFLTDLHWDHDYLEGTDPDCADPLCCRRGSGLPPASRPGAGYWGEYSKCDLPLRTLESLLSGLGPAGPFDMVYWTGDIPAHDVWHQTRQDQLRALTTVTALVRKFLGPVPVYPAVGNHESTPVNSFPPPFIEGNHSSRWLYEAMAKAWEPWLPAEALRTLRIGGFYALSPYPGLRLISLNMNFCSRENFWLLINSTDPAGQLQWLVGELQAAEDRGDKVHIIGHIPPGHCLKSWSWNYYRIVARYENTLAAQFFGHTHVDEFEVFYDEETLSRPLAVAFLAPSATTYIGLNPGYRVYQIDGNYSGSSHVVLDHETYILNLTQANIPGAIPHWQLLYRARETYGLPNTLPTAWHNLVYRMRGDMQLFQTFWFLYHKGHPPSEPCGTPCRLATLCAQLSARADSPALCRHLMPDGSLPEAQSLWPRP
notes: Hetero-tetramer, MW 320 kDa; The ELISA used CHO-derived protein; also called HIRMAb-ASM; HIR Ab LC-ASM + HIR Ab HC
For B3, the results for the EC50 in experiment [10] and in experiment [8] were 930 pM and 0.299 µg/mL, respectively.

B4: HIR Ab-HEXA fusion protein (antibody, human IgG1, human IgG3, kappa)
heavy: not shown
light: DIQMTQSPSSLSASLGERVSLTCRASQDIGGNLYWLQQGPDGTIKRLIYATSSLDSGVPKRFSGSRSGSDYSLTISSLESEDFVDYYCLQYSSSPWTFGGGTKMEIKRTVAAPSVFIFPPSDEQLKSGTASVVCLLNNFYPREAKVQWKVDNALQSGNSQESVTEQDSKDSTYSLSSTLTLSKADYEKHKVYACEVTHQGLSSPVTKSFNRGECSSSELKTPLGDTTHTSPRSPAPEFLGGPSSSLWPWPQNFQTSDQRYVLYPNNFQFQYDVSSAAQPGCSVLDEAFQRYRDLLFGSGSWPRPYLTGKRHTLEKNVLVVSVVTPGCNQLPTLESVENYTLTINDDQCLLLSETVWGALRGLETFSQLVWKSAEGTFFINKTEIEDFPRFPHRGLLLDTSRHYLPLSSILDTLDVMAYNKLNVFHWHLVDDPSFPYESFTFPELMRKGSYNPVTHIYTAQDVKEVIEYARLRGIRVLAEFDTPGHTLSWGPGIPGLLTPCYSGSEPSGTFGPVNPSLNNTYEFMSTFFLEVSSVFPDFYLHLGGDEVDFTCWKSNPEIQDFMRKKGFGEDFKQLESFYIQTLLDIVSSYGKGYVVWQEVFDNKVKIQPDTIIQVWREDIPVNYMKELELVTKAGFRALLSAPWYLNRISYGPDWKDFYIVEPLAFEGTPEQKALVIGGEACMWGEYVDNTNLVPRLWPRAGAVAERLWSNKLTSDLTFAYERLSHFRCELLRRGVQAQPLNVGFCEQEFEQT
notes: also called HIRMAb-HEXA; HIR Ab LC-HEXA + HIR Ab HC
Regarding B4, the values for the EC50 in [11], in experiment [12] and in experiment [13] were 0.112 µg/mL, 0.122 µg/mL and 350 pM, respectively.
